Laboratory results reported in IntAct's records for PubMed 16280320.

B1: Dolichol-phosphate mannosyltransferase subunit 3 (Cricetulus griseus (Chinese hamster)), Q4LDX8 (parent)
chain: MTKLAQWLWGLALLGSAWAALTMGALGLELPFPCQEVLWPLPAYLLVSAGCYALGTVGYRVATFHDCEDAARELQSQILEARADLARRGLRF

Variants of: B1
Conditions: with dpm1_human DPM1, O60762
Sequence of dpm1_human DPM1, O60762 (O60762 whole entry): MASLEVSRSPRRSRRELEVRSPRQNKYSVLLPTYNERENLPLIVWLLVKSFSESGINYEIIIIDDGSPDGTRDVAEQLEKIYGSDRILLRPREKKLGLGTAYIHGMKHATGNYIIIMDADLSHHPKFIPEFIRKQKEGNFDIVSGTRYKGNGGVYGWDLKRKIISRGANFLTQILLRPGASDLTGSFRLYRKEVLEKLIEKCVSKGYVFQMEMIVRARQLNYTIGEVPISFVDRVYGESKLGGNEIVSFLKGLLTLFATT

effect of a mutation on the interaction | Variant
disrupting interaction | MTKLAQWLWGLALLGSAWAALTMGALGLELPFPCQEVLWPLPAYLLVSAGCYALGTVGYRVATFHDCEDAARESQSQTLEARADSARRGLRF [L74S;I78T;L85S]
